Laboratory results published in PMC6497955, “Development and structural characterization of an engineered multi-copper oxidase reporter of protein–protein interactions” (The Journal of Biological Chemistry, 2019).

B1: CueO-PM2 (designed binder)
chain: AERPTLPIPDLLTTDARNRIQLTIGAGQSTFGGKTATTWGYNGNLLGPAVKLQRGKAVTVDIYNQLTEETTLHWHGLEVPGEVDGGPQGIIPPGGKRSVTLNVDQPAATCWFHPHQHGKTGRQVAMGLAGLVVIEDDEILKLMLPKQWGIDDVPVIVQDKKFSADGQIDYQLDVMTAAVGWFGDTLLTNGAIYPQHAAPRGWLRLRLLNGCNARSLNFATSDNRPLYVIASDGGLLPEPVKVSELPVLMGERFEVLVEVNDNKPFDLVTLPVSQMGMAIAPFDKPHPVMRIQPIAISASGALPDTLSSLPALPSLEGLTVRKLQLSMDPILDMMGMQMLMEKYGDQAMAGMDHSQMTSFAEYWALLSMNHGGKFDFHHANKINGQAFDMNKPMFAAAKGQYERWVISGVGDMMLHPFHIHGTQFRILSENGKPPAAHRAGWKDTVKVEGNVSEVLVKFNHDAPKEHAYMAHCHLLEHEDTGMMLGFTV
B2: MDM2(6–125) (domain or fragment, UniProt Q00987 6-125, looked up)
chain: MSVPTDGAVTTSQIPASEQETLVRPKPLLLKLLKSVGAQKDTYTMKEVLFYLGQYIMTKRLYDEKQQHIVYCSNDLLGDLFGVPSFSVKEHRKIYTMIYRNLVVVNQQESSDSGTSVSEN

What was measured:
MDM2(6–125) = target: B2; assay: cell-based or functional assay
CueO (M358I) = target: T1, CueO (M358I) (E. coli, UniProt P36649 29-516, M358I); assay: fluorescence polarisation; competitive fluorescence anisotropy; CueO proteins titrated against 150 nM MDM2(6–125) and 50 nM FITC-labeled 12.1 peptide; PBS, 3% DMSO, 0.1% Tween 20; apparent Kd; conditions: both partners purified
T1 construct: signal peptide in the construct (primer 1 begins at the precursor's ATG); E. coli multi-copper oxidase CueO, gene amplified from JM109 genomic DNA with primers 1 and 2; The M358I mutation arose during cloning and is present in all variants; The signal peptide may be cut in E. coli (surmise; the solved variants are modelled from residue 29 or 30); source: E. coli BL21(DE3), purified (HisTrap)
T1 sequence (looked up): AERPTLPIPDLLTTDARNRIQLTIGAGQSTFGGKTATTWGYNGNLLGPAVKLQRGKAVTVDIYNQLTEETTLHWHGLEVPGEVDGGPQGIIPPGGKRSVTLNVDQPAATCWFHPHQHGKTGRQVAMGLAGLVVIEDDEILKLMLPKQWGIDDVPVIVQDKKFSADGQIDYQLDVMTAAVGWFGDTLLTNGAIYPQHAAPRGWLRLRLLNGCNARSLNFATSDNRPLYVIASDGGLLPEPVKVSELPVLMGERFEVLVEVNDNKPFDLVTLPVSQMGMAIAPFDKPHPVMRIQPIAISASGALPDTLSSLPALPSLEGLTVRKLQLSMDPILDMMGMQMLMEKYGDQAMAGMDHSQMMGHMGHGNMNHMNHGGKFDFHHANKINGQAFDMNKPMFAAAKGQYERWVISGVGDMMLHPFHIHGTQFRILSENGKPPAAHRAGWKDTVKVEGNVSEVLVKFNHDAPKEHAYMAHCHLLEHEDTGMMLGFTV

CueO-12.1 = target: T2, CueO-12.1 (E. coli, UniProt P36649 29-516, M358I | 12.1 peptide replaced residues 384–394 (translated from primers 9 and …)); assay: as above; conditions: both partners purified
T2 construct: signal peptide in the construct; source: E. coli BL21(DE3), purified (HisTrap)
T2 sequence (looked up): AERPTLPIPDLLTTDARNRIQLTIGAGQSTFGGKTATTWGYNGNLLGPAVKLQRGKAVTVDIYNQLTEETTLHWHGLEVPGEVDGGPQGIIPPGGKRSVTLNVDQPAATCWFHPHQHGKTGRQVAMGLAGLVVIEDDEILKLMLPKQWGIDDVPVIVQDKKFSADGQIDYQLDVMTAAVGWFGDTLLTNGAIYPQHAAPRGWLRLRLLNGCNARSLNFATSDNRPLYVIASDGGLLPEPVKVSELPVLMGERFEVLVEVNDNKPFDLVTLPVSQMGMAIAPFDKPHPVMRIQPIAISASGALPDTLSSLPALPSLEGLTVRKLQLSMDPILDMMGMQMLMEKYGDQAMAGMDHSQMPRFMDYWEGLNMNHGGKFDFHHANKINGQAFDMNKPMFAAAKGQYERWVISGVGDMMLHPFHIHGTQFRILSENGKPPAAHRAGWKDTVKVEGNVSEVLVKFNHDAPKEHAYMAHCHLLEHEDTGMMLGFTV

CueO-PMI = target: T3, CueO-PMI (E. coli, UniProt P36649 29-516, M358I | PMI peptide insert (translated from primers 13 and 14, Table 3: 385-395 …)); assay: as above; conditions: both partners purified
T3 construct: signal peptide in the construct; source: E. coli BL21(DE3), purified (HisTrap)
T3 sequence (looked up): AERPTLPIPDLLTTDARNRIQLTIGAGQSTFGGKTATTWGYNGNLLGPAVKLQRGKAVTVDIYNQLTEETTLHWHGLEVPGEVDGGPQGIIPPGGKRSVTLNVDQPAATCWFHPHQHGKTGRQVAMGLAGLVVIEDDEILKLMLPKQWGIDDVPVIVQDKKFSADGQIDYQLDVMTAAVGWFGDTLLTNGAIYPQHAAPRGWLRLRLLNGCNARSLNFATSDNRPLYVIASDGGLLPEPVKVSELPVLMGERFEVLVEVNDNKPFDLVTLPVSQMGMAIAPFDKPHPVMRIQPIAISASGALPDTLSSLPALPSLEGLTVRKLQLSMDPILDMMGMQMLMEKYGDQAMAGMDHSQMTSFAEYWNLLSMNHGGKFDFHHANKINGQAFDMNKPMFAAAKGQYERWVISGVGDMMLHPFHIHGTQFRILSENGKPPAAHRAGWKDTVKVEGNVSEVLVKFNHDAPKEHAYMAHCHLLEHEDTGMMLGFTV

CueO-PM2 = target: B1; assay: as above; conditions: both partners purified

Binder | kcat of syringaldazine oxidation by CueO-PM2 preincubated with 10 μM MDM2, against CueO-PM2 alone (MDM2(6–125)) | Kd (CueO (M358I)) | Kd (CueO-12.1) | Kd (CueO-PMI) | Kd (CueO-PM2)
B1 | ~1.6 fold |  |  |  | 
B2 |  | 44300 nM | 722 nM | 28 nM | 25 nM
